The results in this text go back to US11827699 (dated 2023).

Experiment in all cases: SPR
In general terms: In SPR one partner is held on a chip, and binding of the other changes the refractive index at the surface.

The target of assay [1] is T1, human FcγRIIb (human, UniProt P31994).
T1 chain: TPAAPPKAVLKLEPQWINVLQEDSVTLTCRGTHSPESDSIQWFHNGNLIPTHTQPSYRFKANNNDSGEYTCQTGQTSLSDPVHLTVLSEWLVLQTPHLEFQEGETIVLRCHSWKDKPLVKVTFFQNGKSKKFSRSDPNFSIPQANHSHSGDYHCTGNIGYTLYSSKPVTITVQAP

For assay [2], the target named is T2, human FcγRIa (human, UniProt P12314).
T2 chain: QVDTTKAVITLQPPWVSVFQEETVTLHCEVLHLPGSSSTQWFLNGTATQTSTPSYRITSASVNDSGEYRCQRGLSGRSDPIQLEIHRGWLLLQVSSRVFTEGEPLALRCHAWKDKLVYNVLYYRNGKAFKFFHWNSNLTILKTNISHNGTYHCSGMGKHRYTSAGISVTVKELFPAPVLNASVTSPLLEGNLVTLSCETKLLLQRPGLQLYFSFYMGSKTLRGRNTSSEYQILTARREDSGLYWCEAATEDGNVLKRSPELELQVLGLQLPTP

The target in assay [3] is T3, human FcγRIIa R131 (human, UniProt P12318).
T3 chain: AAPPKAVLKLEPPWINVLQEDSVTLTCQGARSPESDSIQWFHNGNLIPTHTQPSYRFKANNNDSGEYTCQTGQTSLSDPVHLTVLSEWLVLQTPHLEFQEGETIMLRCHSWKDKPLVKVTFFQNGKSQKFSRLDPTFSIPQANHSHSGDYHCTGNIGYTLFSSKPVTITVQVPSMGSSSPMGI

Assay [4] has as its target T1, human FcγRIIb.
For assay [5], the target named is T1, human FcγRIIb.
The target of assay [6] is T4, mouse FcγRI (mouse, UniProt P26151).
T4 chain: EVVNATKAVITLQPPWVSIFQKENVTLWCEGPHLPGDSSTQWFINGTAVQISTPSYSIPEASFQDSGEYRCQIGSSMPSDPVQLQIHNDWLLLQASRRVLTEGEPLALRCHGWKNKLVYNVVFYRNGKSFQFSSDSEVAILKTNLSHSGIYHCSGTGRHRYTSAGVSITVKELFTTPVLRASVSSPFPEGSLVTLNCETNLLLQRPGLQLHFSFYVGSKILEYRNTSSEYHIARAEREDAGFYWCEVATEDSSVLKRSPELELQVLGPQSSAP

Assay [7] deals with T5, mouse FcγRIV (mouse, UniProt A0A0B4J1G0).
T5 chain: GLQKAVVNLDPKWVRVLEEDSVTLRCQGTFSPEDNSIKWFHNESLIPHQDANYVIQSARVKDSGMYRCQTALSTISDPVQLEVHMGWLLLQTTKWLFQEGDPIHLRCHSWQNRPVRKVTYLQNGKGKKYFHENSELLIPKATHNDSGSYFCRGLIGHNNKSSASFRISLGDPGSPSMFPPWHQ

Broadly, the Kd is the equilibrium constant for the complex coming apart.

Like-named read-outs stand apart in the source and are kept apart here.

B1: IL6R-BP464 (antibody)
chain 1: QVQLQESGPGLVKPSETLSLTCAVSGHSISHDHAWSWVRQPPGEGLEWIGFISYSGITNYNPSLQGRVTISRDNSKNTLYLQMNSLRAEDTAVYYCARSLARTTAMDYWGEGTLVTVSSASTKGPSVFPLAPSSKSTSGGTAALGCLVKDYFPEPVTVSWNSGALTSGVHTFPAVLQSSGLYSLSSVVTVPSSSLGTQTYICNVNHKPSNTKVDKKVEPKSCDKTHTCPPCPAPDLLGDDSVFLFPPKPKDTLMISRTPEVTCVVVDVAEEDGEVKFNWYVDGVEVHNAKTKPREEQYNSTYRVVSVLTVLHQDWLNGKEYKCKVSNKALPRPIEKTISKAKGQPREPQVYTLPPSRDELTKNQVSLTCLVKGFYPSDIAVEWESNGQPENNYKTTPYVLDSDGSFFLYSKLTVDKSRWQQGNVFSCSVMHEALHNHYTQESLSLSP
chain 2: not shown
B1: in assay [1], the Kd was determined as 4 nM. That is a single-digit nanomolar value.

B2: IL6R-BP455 (antibody)
chain 1: QVQLQESGPGLVKPSETLSLTCAVSGHSISHDHAWSWVRQPPGEGLEWIGFISYSGITNYNPSLQGRVTISRDNSKNTLYLQMNSLRAEDTAVYYCARSLARTTAMDYWGEGTLVTVSSASTKGPSVFPLAPSSKSTSGGTAALGCLVKDYFPEPVTVSWNSGALTSGVHTFPAVLQSSGLYSLSSVVTVPSSSLGTQTYICNVNHKPSNTKVDKKVEPKSCDKTHTCPPCPAPDLLGDDSVFLFPPKPKDTLMISRTPEVTCVVVDVAEEDGEVKFNWYVDGVEVHNAKTKPREEQYNSTYRVVSVLTVLHQDWLNGKEYKCKVSNKALPRPIEKTISKAKGQPREPQVYTLPPSRDELTKNQVSLTCLVKGFYPSDIAVEWESNGQPENNYKTTPLVLDSDGSFFLYSKLTVDKSRWQQGNVFSCSVMHEALHNHYTQESLSLSP
chain 2: not shown
In assay [1], B2 yielded a Kd of 4 nM.

B3: IL6R-BP150 (antibody)
chain 1: QVQLQESGPGLVKPSETLSLTCAVSGHSISHDHAWSWVRQPPGEGLEWIGFISYSGITNYNPSLQGRVTISRDNSKNTLYLQMNSLRAEDTAVYYCARSLARTTAMDYWGEGTLVTVSSASTKGPSVFPLAPSSKSTSGGTAALGCLVKDYFPEPVTVSWNSGALTSGVHTFPAVLQSSGLYSLSSVVTVPSSSLGTQTYICNVNHKPSNTKVDKKVEPKSCDKTHTCPPCPAPEYLGDDSVFLFPPKPKDTLMISRTPEVTCVVVDVSHEDPEVKFNWYVDGVEVHNAKTKPREEQYNSTYRVVSVLTVLHQDWLNGKEYKCKVSNAALPKPIEKTISKAKGQPREPQVYTLPPSRDELTKNQVSLTCLVKGFYPSDIAVEWESNGQPENNYKTTPPVLDSDGSFFLYSKLTVDKSRWQQGNVFSCSVMHEALHNHYTQESLSLSP
chain 2: not shown
In the case of B3, the Kd turned out to be 320 nM in assay [2], 550 nM in assay [3] and 31 nM in assay [4].

B4: IL6R-BP152 (antibody)
chain 1: QVQLQESGPGLVKPSETLSLTCAVSGHSISHDHAWSWVRQPPGEGLEWIGFISYSGITNYNPSLQGRVTISRDNSKNTLYLQMNSLRAEDTAVYYCARSLARTTAMDYWGEGTLVTVSSASTKGPSVFPLAPSSKSTSGGTAALGCLVKDYFPEPVTVSWNSGALTSGVHTFPAVLQSSGLYSLSSVVTVPSSSLGTQTYICNVNHKPSNTKVDKKVEPKSCDKTHTCPPCPAPDYLGDDSVFLFPPKPKDTLMISRTPEVTCVVVDVSHEDPEVKFNWYVDGVEVHNAKTKPREEQDNSTYRVVSVLTVLHQDWLNGKEYKCKVSNAALPKPIEKTISKAKGQPREPQVYTLPPSRDELTKNQVSLTCLVKGFYPSDIAVEWESNGQPENNYKTTPPVLDSDGSFFLYSKLTVDKSRWQQGNVFSCSVMHEALHNHYTQESLSLSP
chain 2: not shown
For B4, the values for the Kd in assay [2], in assay [3] and in assay [4] were 73 nM, 810 nM and 41 nM, respectively.

B5: IL6R-BP151 (antibody)
chain 1: QVQLQESGPGLVKPSETLSLTCAVSGHSISHDHAWSWVRQPPGEGLEWIGFISYSGITNYNPSLQGRVTISRDNSKNTLYLQMNSLRAEDTAVYYCARSLARTTAMDYWGEGTLVTVSSASTKGPSVFPLAPSSKSTSGGTAALGCLVKDYFPEPVTVSWNSGALTSGVHTFPAVLQSSGLYSLSSVVTVPSSSLGTQTYICNVNHKPSNTKVDKKVEPKSCDKTHTCPPCPAPDYLGDDSVFLFPPKPKDTLMISRTPEVTCVVVDVSHEDPEVKFNWYVDGVEVHNAKTKPREEQYNSTYRVVSVLTVLHQDWLNGKEYKCKVSNAALPKPIEKTISKAKGQPREPQVYTLPPSRDELTKNQVSLTCLVKGFYPSDIAVEWESNGQPENNYKTTPPVLDSDGSFFLYSKLTVDKSRWQQGNVFSCSVMHEALHNHYTQESLSLSP
chain 2: not shown
On to B5, for which the Kd in assay [2] is 84 nM; in assay [3], 670 nM; in assay [4], 40 nM.

B6: IL6R-BP367 (antibody)
chain 1: QVQLQESGPGLVKPSETLSLTCAVSGHSISHDHAWSWVRQPPGEGLEWIGFISYSGITNYNPSLQGRVTISRDNSKNTLYLQMNSLRAEDTAVYYCARSLARTTAMDYWGEGTLVTVSSASTKGPSVFPLAPSSKSTSGGTAALGCLVKDYFPEPVTVSWNSGALTSGVHTFPAVLQSSGLYSLSSVVTVPSSSLGTQTYICNVNHKPSNTKVDKKVEPKSCDKTHTCPPCPAPDLLGDDSVFLFPPKPKDTLMISRTPEVTCVVVDVSEDDGEVKFNWYVDGVEVHNAKTKPREEQYNSTYRVVSVLTVLHQDWLNGKEYKCKVSNKALPAPIEKTISKAKGQPREPQVYTLPPSRDELTKNQVSLTCLVKGFYPSDIAVEWESNGQPENNYKTTPPVLDSDGSFFLYSKLTVDKSRWQQGNVFSCSVMHEALHNHYTQESLSLSP
chain 2: not shown
Take B6: in assay [5], the Kd worked out at 100 nM.

B7: VH3/L(WT)-mIgG1 (antibody)
chain 1: QVQLQESGPGLVKPSETLSLTCAVSGHSISHDHAWSWVRQPPGEGLEWIGFISYSGITNYNPSLQGRVTISRDNSKNTLYLQMNSLRAEDTAVYYCARSLARTTAMDYWGEGTLVTVSSAKTTPPSVYPLAPGSAAQTNSMVTLGCLVKGYFPEPVTVTWNSGSLSSGVHTFPAVLQSDLYTLSSSVTVPSSTWPSETVTCNVAHPASSTKVDKKIVPRDCGCKPCICTVPEVSSVFIFPPKPKDVLTITLTPKVTCVVVDISKDDPEVQFSWFVDDVEVHTAQTQPREEQFNSTFRSVSELPIMHQDWLNGKEFKCRVNSAAFPAPIEKTISKTKGRPKAPQVYTIPPPKEQMAKDKVSLTCMITDFFPEDITVEWQWNGQPAENYKNTQPIMDTDGSYFVYSKLNVQKSNWEAGNTFTCSVLHEGLHNHHTEKSLSHSPGK
chain 2: not shown
Turning to B7, the binding result in assay [6] and in assay [7] was “no binding” throughout.

B8: VH3/L(WT)-mIgG1-mF46 (antibody)
chain 1: QVQLQESGPGLVKPSETLSLTCAVSGHSISHDHAWSWVRQPPGEGLEWIGFISYSGITNYNPSLQGRVTISRDNSKNTLYLQMNSLRAEDTAVYYCARSLARTTAMDYWGEGTLVTVSSAKTTPPSVYPLAPGSAAQTNSMVTLGCLVKGYFPEPVTVTWNSGSLSSGVHTFPAVLQSDLYTLSSSVTVPSSTWPSETVTCNVAHPASSTKVDKKIVPRDCGCKPCICTVPEVSDVFIFPPKPKDVLTITLTPKVTCVVVDISKDDPEVQFSWFVDDVEVHTAQTQPREEQFNSTFRSVSELPIMHQDWLNGKEFKCRVNSADFPAPIEKTISKTKGRPKAPQVYTIPPPKEQMAKDKVSLTCMITDFFPEDITVEWQWNGQPAENYKNTQPIMDTDGSYFVYSKLNVQKSNWEAGNTFTCSVLHEGLHNHHTEKSLSHSPGK
chain 2: not shown
For B8, the binding result in assay [6] and in assay [7] was “no binding” in each case.

B9: VH3/L(WT)-mIgG1-mF44 (antibody)
chain 1: QVQLQESGPGLVKPSETLSLTCAVSGHSISHDHAWSWVRQPPGEGLEWIGFISYSGITNYNPSLQGRVTISRDNSKNTLYLQMNSLRAEDTAVYYCARSLARTTAMDYWGEGTLVTVSSAKTTPPSVYPLAPGSAAQTNSMVTLGCLVKGYFPEPVTVTWNSGSLSSGVHTFPAVLQSDLYTLSSSVTVPSSTWPSETVTCNVAHPASSTKVDKKIVPRDCGCKPCICTVPEVSSVFIFPPKPKDVLTITLTPKVTCVVVDISKDDPEVQFSWFVDDVEVHTAQTQPREEQFNSTFRSVSELPIMHQDWLNGKEFKCRVNSADFPAPIEKTISKTKGRPKAPQVYTIPPPKEQMAKDKVSLTCMITDFFPEDITVEWQWNGQPAENYKNTQPIMDTDGSYFVYSKLNVQKSNWEAGNTFTCSVLHEGLHNHHTEKSLSHSPGK
chain 2: not shown
On to B9, for which the binding result in assay [6] and in assay [7] was “no binding” in each case.
